# Source: patent publication US6713283B2, “Tyrosylprotein sulfotransferases” (The Board of Regents of the University of Oklahoma, priority 1998, dated 2004)
# Assays:
# TPST = assay: Inhibition of [35S]sulfate transfer in the TPST assay by free peptide; type: biochemical; conditions: free peptide versus immobilized peptide
# Description: (§1) Assay of Sulfotransferase Activity. TPST activity was determined by measuring the transfer of [^35S]sulfate from [^35S]PAPS (Dupont/NEN) to an immobilized peptide. The peptide (QATEYEYLDYDFLPEC (SEQ ID NO:22)) represents the NH2-terminal 15 residues of the mature PSGL-1 polypeptide to which a carboxy terminal cysteine residue was added. […] The peptide was linked via the cysteine residue to iodoacetamide-activated resin (UltraLink™ Iodoacetyl, Pierce) at a density of 1.5-3.0 μmol/ml resin. The enzyme assay was performed by combining 10 μl of peptide-derivitized beads with 2-20 μl of sample in 40 mM PIPES, pH 6.8, 0.3 M NaCl, 20 mM MnCl2, 50 mM NaF, 1% Triton X-100, 1 mM 5′AMP in a final volume of […]. The assay was initiated by addition of 0.5 μCi of [^35S]PAPS (about 1.7 μM). After 30 min at 37° C., the reaction beads were washed extensively with 6 M guanidine at 65° C. and the radioactivity incorporated into the beads determined by liquid scintillation counting. The reaction rate was optimal at pH 6.8-7.0, 0.3 M NaCl, and 2 μM PAPS and was linear with respect to time and sample input. […] One unit of activity was defined as 1 pmol of product formed per minute.
# [1] = test system: PSGL-1 peptide (QATEYEYLDYDFLPEC); assay: TPST activity assay: transfer of [35S]sulfate from [35S]PAPS to immobilized PSGL-1 peptide; type: biochemical, Homo sapiens; conditions: for specific activity of 293-T cell extracts: 293-T cells transfected with full-length HPC4 fusion cDNA; for specific activity of 293-T cell extracts / Specific Activity: mean ± SD; for increase in specific activity of 293-T cell extracts compared to mock transfected: PSGL-1 peptide substrate; for Induction-Fold: mean specific activity of TPST transfected vs. mock transfected extracts; for TPST activity in cell-free conditioned media / culture supernatants: conditioned media of transfected CHO-K1 and 293-T cells (full-length enzyme); for Specific Activity: 1 unit = 1 pmol product/min
# Description: as §1
# Chinese hamster ovary cells (CHO-K1) were grown in high-glucose Alpha modified Eagle's media containing 10% FCS, 2 mM glutamine at 37° C. and 5% CO2. The human embryonic kidney cell line 293-T was grown in low-glucose Dulbecco's modified Eagle's media containing 10% FCS, 2 mM glutamine at 37° C. and 5% CO2. Cells were transfected with empty vector or vector containing cDNAs encoding human TPST-1-HPC4 fusion protein or mouse TPST-1 using Lipofectamine (Gibco/BRL) according to the instructions of the supplier. The media was changed at 24 h and after an additional 24 h the conditioned media was collected. The cell monolayers were washed with Ca^2+/Mg^2+-free Hank's balanced salt solution and the cells released from the plates. The cells were pelleted by centrifugation and extracted with 1% Triton X-100, 0.1 M NaCl, 20 mM TAPS (pH 9.0), 10 μg/ml leupeptin/antipain, 5 mM benzamidine. Extracts and conditioned media were clarified by centrifugation (15 min, 10,000 g) and stored at −80° C.
# Expression and characterization of Recombinant TPST-2. Full-length human and mouse TPST-2 were expressed in 293-T cells as HPC4 fusion proteins as described in Experimental Procedures. Cells transfected with empty plasmid or plasmid encoding human and mouse TPST fusion proteins were extracted and assayed for TPST activity and protein content. Extracts were assayed as discussed above using a PSGL-1 peptide substrate (QATEYEYLDYDFLPEC (SEQ ID NO:22)). The specific activity of mock transfected 293-T cell extracts was 0.06±0.01 u/mg (mean±SD, n=6).
# [2] = extracts of transfected 293-T cells
molecule,measurement,setting,value
QATEYEYLDYDFLPEC [free peptide],IC50 for inhibition of transfer of [35S]sulfate,TPST,equimolar to the concentration of immobilized peptide in the assay
"mouse TPST-2: Full-length mouse tyrosylprotein sulfotransferase-2 (SEQ ID NO:7) expressed as HPC4 fusion protein (protein, HPC4 fusion tag) MRLSVRKVLLAAGCALALVLAVQLGQQVLECRAVLGGTRNPRRMRPEQEELVMLGADHVEYRYGKAMPLIFVGGVPRSGTTLMRAMLDAHPEVRCGEETRIIPRVLAMRQAWTKSGREKLRLDEAGVTDEVLDAAMQAFILEVIAKHGEPARVLCNKDPFTLKSSVYLARLFPNSKFLLMVRDGRASVHSMITRKVTIAGFDLSSYRDCLTKWNKAIEVMYAQCMEVGRDKCLPVYYEQLVLHPRRSLKRILDFLGIAWSDTVLHHEDLIGKPGGVSLSKIERSTDQVIKPVNLEALSKWTGHIPRDVVRDMAQIAPMLARLGYDPYANPPNYGNPDPIVINNTHRVLKGDYKTPANLKGYFQVNQNSTSPHLGSS",specific activity of 293-T cell extracts,[1],2.91±0.86 u/mg
same,increase in specific activity of 293-T cell extracts compared to mock transfected,[1]; 293-T cells,46 fold
"hTPST-1-HPC4: Human tyrosylprotein sulfotransferase-1 (SEQ ID NO:1) expressed as fusion protein with NH2-terminal HPC4 epitope (protein, N-terminal HPC4 epitope tag) MVGKLKQNLLLACLVISSVTVFYLGQHAMECHHRIEERSQPVKLESTRTTVRTGLDLKANKTFAYHKDMPLIFIGGVPRSGTTLMRAMLDAHPDIRCGEETRVIPRILALKQMWSRSSKEKIRLDEAGVTDEVLDSAMQAFLLEIIVKHGEPAPYLCNKDPFALKSLTYLSRLFPNAKFLLMVRDGRASVHSMISRKVTIAGFDLNSYRDCLTKWNRAIETMYNQCMEVGYKKCMLVHYEQLVLHPERWMRTLLKFLQIPWNHSVLHHEEMIGKAGGVSLSKVERSTDQVIKPVNVGALSKWVGKIPPDVLQDMAVIAPMLAKLGYDPYANPPNYGKPDPKIIENTRRVYKGEFQLPDFLKEKPQTEQVE",specific activity of TPST-1 extracts relative to TPST-2 extracts,"[1]; 293-T cell extracts, PSGL-1 peptide as substrate",comparable
same,Induction-Fold,[1]; 293-T cells,80 Fold
same,Induction-Fold,[1]; CHO-K1 cells,9 Fold
same,TPST activity in cell-free conditioned media / culture supernatants,[1],not detectable
same,Specific Activity,[1]; [2],8.84 ± 1.53 (5) units/mg
same,Specific Activity,[1]; extracts of transfected CHO-K1 cells,2.31 ± 0.89 (3) units/mg
same,specific activity of purified fusion protein,[1]; purified from 293-T cell extracts by HPC4 affinity chromatography,"about 6,300 u/mg"
"C. elegans TPST-A: C. elegans tyrosylprotein sulfotransferase of 380 amino acids (SEQ ID NO:9), expressed full-length in 293-T cells (protein) MRKNRELLLVLFLVVFILFYFITARTADDPYYSNHREKFNGAAADDGDESLPFHQLTSVRSDDGYNRTSPFIFIGGVPRSGTTLMRAMLDAHPEVRCGEETRVIPRILNLRSQWKKSEKEWNRLQQAGVTGEVINNAISSFIMEIMVGHGDRAPRLCNKDPFTMKSAVYLKELFPNAKYLLMIRDGRATVNSIISRKVTITGFDLNDFRQCMTKWNAAIQIMVDQCESVGEKNCLKVYYEQLVLHPEAQMRRITEFLDIPWDDKVLHHEQLIGKDISLSNVERSSDQVVKPVNLDALIKWVGTIPEDVVADMDSVAPMLRRLGYDPNANPPNYGKPDELVAKKTEDVHKNGAEWYKKAVQVVNDPGRVDKPIVDNEVSKL",increase in specific activity of 293-T cell extracts compared to mock transfected,[1]; 293-T cells,40 fold
"human TPST-2: Full-length human tyrosylprotein sulfotransferase-2 (SEQ ID NO:5) expressed as HPC4 fusion protein (protein, HPC4 epitope tag) MRLSVRRVLLAAGCALVLVLAVQLGQQVLECRAVLAGLRSPRGAMRPEQEELVMVGTNHVEYRYGKAMPLIFVGGVPRSGTTLMRAMLDAHPEVRCGEETRIIPRVLAMRQAWSKSGREKLRLDEAGVTDEVLDAAMQAFILEVIAKHGEPARVLCNKDPFTLKSSVYLSRLFPNSKFLLMVRDGRASVHSMITRKVTIAGFDLSSYRDCLTKWNKAIEVMYAQCMEVGKEKCLPVYYEQLVLHPRRSLKLILDFLGIAWSDAVLHHEDLIGKPGGVSLSKIERSTDQVIKPVNLEALSKWTGHIPGDVVRDMAQIAPMLAQLGYDPYANPPNYGNPDPFVINNTQRVLKGDYKTPANLKGYFQVNQNSTSSHLGSS",specific activity of 293-T cell extracts,[1],7.07±1.28 u/mg
same,increase in specific activity of 293-T cell extracts compared to mock transfected,[1]; 293-T cells,112 fold
"rat liver TPST: TPST purified from rat liver microsomes, polypeptide of about 50 kDa (protein) MVGKLKQNLLLACLVISSVTVFYLGQHAMECHHRIEERSQPARLENPKATVRTGLDIKANKTFTYHKNMPLIFIGGVPRSGTTLMRAMLDAHPDIRCGEETRVIPRILALKQMWSRSSKEKIRLDEAGVTDEVLDSAMQAFLLEVIVKHGEPAPYLCNKDPFALKSLTYLARLFPNAKFLLMVRDGRASVHSMISRKVTIAGFDLNSYRDCLTKWNRAIETMYNQCMEVGYKKCMLVHYEQLVLHPERWMRTLLKFLHIPWNHSVLHHEEMIGKAGGVSLSKVERSTDQVIKPVNVGALSKWVGKIPPDVLQDMAVIAPMLAKLGYDPYANPPNYGKPDPKILENTRRVHKGEFQLPDFLKEKPQTEQVE",specific activity of purified enzyme,[1]; rat liver microsomal enzyme after second PSGL-1 peptide column,"about 2,950 units/mg"
"mTPST-1: Mouse tyrosylprotein sulfotransferase-1 (SEQ ID NO:3), expressed from unmodified pcDNA3.1(+) vector (protein) MVGKLKQNLLLACLVISSVTVFYLGQHAMECHHRIEERSQPARLENPKATVRAGLDIKANKTFTYHKDMPLIFIGGVPRSGTTLMRAMLDAHPDIRCGEETRVIPRILALKQMWSRSSKEKIRLDEAGVTDEVLDSAMQAFLLEVIVKHGEPAPYLCNKDPFALKSLTYLARLFPNAKFLLMVRDGRASVHSMISRKVTIAGFDLNSYRDCLTKWNRAIETMYNQCMEVGYKKCMLVHYEQLVLHPERWMRTLLKFLHIPWNHSVLHHEEMIGKAGGVSLSKVERSTDQVIKPVNVGALSKWVGKIPPDVLQDMAVIAPMLAKLGYDPYANPPNYGKPDPKILENTRRVYKGEFQLPDFLKEKPQTEQVE",Induction-Fold,[1]; 293-T cells,74 Fold
same,TPST activity in cell-free conditioned media / culture supernatants,[1],not detectable
same,Specific Activity,[1]; [2],8.10 ± 1.37 (4) units/mg
